Patent US20050048477A1 (published 2005)

T1: myristoylated Gal3p (Myr-Gal3p) (yeast, UniProt P13045 1-520, limits assumed, N-myristoylation (acylation) at the N-terminal signal)
T1 construct: also called membrane-associated Gal3p
T1 sequence: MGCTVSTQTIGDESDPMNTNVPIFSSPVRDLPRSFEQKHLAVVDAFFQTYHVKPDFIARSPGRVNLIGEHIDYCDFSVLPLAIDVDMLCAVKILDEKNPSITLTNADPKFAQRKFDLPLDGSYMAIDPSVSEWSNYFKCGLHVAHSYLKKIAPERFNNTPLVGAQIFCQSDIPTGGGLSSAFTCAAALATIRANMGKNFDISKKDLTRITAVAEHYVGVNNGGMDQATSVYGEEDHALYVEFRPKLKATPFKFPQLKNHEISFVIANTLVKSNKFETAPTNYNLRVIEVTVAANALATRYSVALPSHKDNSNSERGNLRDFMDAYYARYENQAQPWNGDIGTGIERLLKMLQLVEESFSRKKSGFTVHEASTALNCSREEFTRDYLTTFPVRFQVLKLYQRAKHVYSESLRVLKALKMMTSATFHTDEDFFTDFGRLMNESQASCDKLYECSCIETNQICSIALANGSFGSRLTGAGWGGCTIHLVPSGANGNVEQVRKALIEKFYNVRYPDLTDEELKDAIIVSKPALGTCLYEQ

B1: Myr-Gal4AD (other, yeast)
chain: MGCTVSTQTIGDESDPPLTPSALFGGANFNQSGNIADSSLSFTFTNSSNGPNLITTQTNSQALSQPIASSNVHDNFMNNEITASKIDDGNNSKPLSPGWTDQTAYNAFGITTGMFNTTTMDDVYNYLFDDEDTPPNPKKE
modifications: N-myristoylation at the N-terminal signal
notes: range 758-881; also called membrane-localized Gal4AD
B2: wild type Gal3p (other, yeast, UniProt P13045 1-520, looked up)
chain: MNTNVPIFSSPVRDLPRSFEQKHLAVVDAFFQTYHVKPDFIARSPGRVNLIGEHIDYCDFSVLPLAIDVDMLCAVKILDEKNPSITLTNADPKFAQRKFDLPLDGSYMAIDPSVSEWSNYFKCGLHVAHSYLKKIAPERFNNTPLVGAQIFCQSDIPTGGGLSSAFTCAAALATIRANMGKNFDISKKDLTRITAVAEHYVGVNNGGMDQATSVYGEEDHALYVEFRPKLKATPFKFPQLKNHEISFVIANTLVKSNKFETAPTNYNLRVIEVTVAANALATRYSVALPSHKDNSNSERGNLRDFMDAYYARYENQAQPWNGDIGTGIERLLKMLQLVEESFSRKKSGFTVHEASTALNCSREEFTRDYLTTFPVRFQVLKLYQRAKHVYSESLRVLKALKMMTSATFHTDEDFFTDFGRLMNESQASCDKLYECSCIETNQICSIALANGSFGSRLTGAGWGGCTIHLVPSGANGNVEQVRKALIEKFYNVRYPDLTDEELKDAIIVSKPALGTCLYEQ
B3: Gal80-GFP (other, yeast, UniProt P04387 1-435, looked up)
chain: MDYNKRSSVSTVPNAAPIRVGFVGLNAAKGWAIKTHYPAILQLSSQFQITALYSPKIETSIATIQRLKLSNATAFPTLESFASSSTIDMIVIAIQVASHYEVVMPLLEFSKNNPNLKYLFVEWALACSLDQAESIYKAAAERGVQTIISLQGRKSPYILRAKELISQGYIGDINSIEIAGNGGWYGYERPVKSPKYIYEIGNGVDLVTTTFGHTIDILQYMTSSYFSRINAMVFNNIPEQELIDERGNRLGQRVPKTVPDHLLFQGTLLNGNVPVSCSFKGGKPTKKFTKNLVIDIHGTKGDLKLEGDAGFAEISNLVLYYSGTRANDFPLANGQQAPLDPGYDAGKEIMEVYHLRNYNAIVGNIHRLYQSISDFHFNTKKIPELPSQFVMQGFDFEGFPTLMDALILHRLIESVYKSNMMGSTLNVSNISHYSL
notes: Order of parts follows the name Gal80-GFP; also called Gal80p fused to green fluorescent protein; not shown: green fluorescent protein (GFP amplified from pYGFP1)
B4: Gal80p (other, yeast, UniProt P04387 1-435, looked up)
chain: B3 chain

Columns and labels:
[1] = biological target: B4; assay: membrane-tethered Gal4AD in yeast with a UASGAL-HIS3 reporter, growth without galactose
From the text: FIG. 7. Membrane targeted transcriptional activation domain of Gal4p (Gal4AD; a.a. 758-881) activates HIS3 reporter gene expression. A yeast strain harboring a UASGAL-HIS3 reporter was transformed with Myr-Gal4AD. […] Transformed cells were spotted on synthetic medium plates lacking histidine, tryptophan and uracil and containing 3% glycerol/2% lactic acid as carbon source.

[2] = biological target: B4; assay: cell-based or functional assay
[3] = biological target: T1, myristoylated Gal3p (Myr-Gal3p); assay: fluorescence microscopy of yeast Sc786 co-expressing Gal80-GFP and Myr-Gal3p, galactose induced
[4] = biological target: B2; assay: conclusion from Examples 1-3 (localisation, reporter induction, chromatin immunoprecipitation) in yeast with galactose
[5] = biological target: Gal4p (yeast, UniProt P04386 1-881); assay: formaldehyde cross-linking and chromatin immunoprecipitation at UASGAL, wild type yeast, un-induced and galactose induced
Method: Fold enrichments are indicated (enrichment). […] FIG. 3C illustrates quantitation of promoter occupancy by Gal4p, Gal80p and Gal3p in un-induced and induced cells. Values are means (±standard deviation) of at least five experiments carried out with two sets of independently prepared chromatin samples.
Chromatin immunoprecipitations were performed as described by Braunstein et al., 1993, Genes Dev. 7: 592-604 and Kuras et al. 1999, Nature 399: 609-613. Briefly, wild type Sc723 cells (Blank et al., 1997, Mol. Cell. Biol. 17: 2566-2575) were grown to early exponential growth phase (as measured by absorbance at 600 nm ˜0.4) in 250 mL yeast extract-peptone medium containing 2% glycerol, 3% lactic acid, and 0.05% glucose (−galactose, un-induced). For galactose-induced cultures, galactose was added to the un-induced cultures to a final concentration of 2% and the cultures were incubated for an additional 20 minutes. Formaldehyde was added to a final concentration of 1%, the cultures were incubated for 20 minutes at room temperature, and glycine was added to a final concentration of 300 mM. All the following steps were carried out at 4° C. Cells were washed twice with TBS (20 mM Tris-HCl, 150 mM NaCl, pH 8.0), resuspended in 1 mL lysis buffer (50 mM Tris-HCl pH 8.0, 10 mM EDTA, 1% SDS, 1 mM PMSF), and disrupted by vortexing with glass beads. […]

Sequence of Gal4p (P04386 whole entry, the tested form may be a part): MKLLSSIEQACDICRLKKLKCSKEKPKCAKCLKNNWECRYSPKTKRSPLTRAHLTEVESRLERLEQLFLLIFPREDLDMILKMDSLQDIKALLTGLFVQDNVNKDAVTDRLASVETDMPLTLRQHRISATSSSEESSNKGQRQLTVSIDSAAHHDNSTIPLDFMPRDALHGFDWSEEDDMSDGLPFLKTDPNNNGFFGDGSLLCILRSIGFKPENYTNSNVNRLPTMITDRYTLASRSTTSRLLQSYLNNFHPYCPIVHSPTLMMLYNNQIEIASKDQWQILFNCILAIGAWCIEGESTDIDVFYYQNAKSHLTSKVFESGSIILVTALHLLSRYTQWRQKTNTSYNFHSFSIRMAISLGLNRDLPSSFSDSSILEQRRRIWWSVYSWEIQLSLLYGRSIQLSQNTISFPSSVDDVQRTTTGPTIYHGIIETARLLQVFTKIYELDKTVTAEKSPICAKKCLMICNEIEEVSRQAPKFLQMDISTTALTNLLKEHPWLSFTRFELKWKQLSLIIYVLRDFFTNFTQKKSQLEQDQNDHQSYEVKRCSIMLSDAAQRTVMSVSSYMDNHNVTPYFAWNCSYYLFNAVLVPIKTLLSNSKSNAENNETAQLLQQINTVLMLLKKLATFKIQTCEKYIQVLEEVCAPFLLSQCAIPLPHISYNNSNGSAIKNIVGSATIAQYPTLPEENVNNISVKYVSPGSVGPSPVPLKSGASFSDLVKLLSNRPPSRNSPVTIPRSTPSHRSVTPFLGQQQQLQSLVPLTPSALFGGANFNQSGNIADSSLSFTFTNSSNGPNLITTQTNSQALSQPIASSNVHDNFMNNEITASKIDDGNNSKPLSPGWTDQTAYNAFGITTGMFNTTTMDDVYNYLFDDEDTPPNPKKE

Question: Does B1 bind [1]?
Answer: Result: binds

Question: With B2 as the binder, how does the “reduction in MEL1 gene expression level” value [2] read?
Answer: The value was 2 fold.

Question: Does B3 bind [3]?
Answer: Result: binds

Question: What does the source list for B4?
Answer: binding result [4]: binds; binding result [5]: binds
